{
  "source": "patent US20150274802A1",
  "key": {"[1]": {"molecular_target": "type B insulin receptor (UniProt P06213)", "test": "cell-based or functional assay"}, "[2]": {"molecular_target": "type A insulin receptor (UniProt P06213)", "test": "cell-based or functional assay"}, "[3]": {"molecular_target": "type A insulin receptor (UniProt P06213)", "test": "competitive binding SPA, [125I]insulin"}, "[4]": {"molecular_target": "type A insulin receptor (UniProt P06213)", "test": "binding assay"}},
  "data": [
    {"substance": "#31: IGF-2 analog B^2-C^2[K8]-A^2-D^2[R4] (from UniProt P01344 25-91) (ligand)", "values": [
      {"measurement": "potency", "setting": "[1]", "result": 2, "unit": "fold"},
      {"measurement": "potency", "setting": "[2]", "result": 2, "unit": "fold"}
    ]},
    {"substance": "#48: Cys^B1-Cys^B1 #2* dimer, B^1[C1H5Y16L17O22R29]29:A^1[O9,14,15N18,21] (ligand)", "values": [
      {"measurement": "% receptor activity, phosphorylation assay", "setting": "[2]", "result": 102, "unit": "%"},
      {"measurement": "% receptor activity (binding assay)", "setting": "[3]", "result": 147, "unit": "%"}
    ]},
    {"substance": "Cys-Cys^B1 peptide (analog #2* with Cys^B1 disulfide-bonded to free cysteine) (ligand)", "values": [
      {"measurement": "% activity, phosphorylation assay", "setting": "[2]", "result": 23.1, "unit": "%"},
      {"measurement": "% activity (binding assay)", "setting": "[3]", "result": 55.4, "unit": "%"}
    ]},
    {"substance": "Insulin analog B^1[H5Y16L17O22R29]29:A^1[O9,14,15N18,21] (ligand)", "values": [
      {"measurement": "% activity (binding assay)", "setting": "[4]", "result": 55, "unit": "%"}
    ]}
  ]
}
